From patent US20180362665A1 (KATHOLIEKE UNIVERSITEIT LEUVEN, published 2018) come the findings set out here.

For this assay, the target named is ovine ADAMTS13 (in sheep plasma) (sheep). Kind of assay: cell-based or functional assay.

B1: anti-ADAMTS13 monoclonal antibody 17C7 (antibody, V domains shown)
VH: EVQLVESGGDLVKSGGSLKLSCAASGFIFSNYAMSWVRQTPEKRLEWGATITTGGFYTFYSDSVKGRFTISRDNAKNTLYLQMSSLRSEDTAMYYCARHRYDDYYALDYWGQGTSVTVSS
VL: ENVLTQSPAIMSTSPGEKVTMTCNVSSSVSYMRWFQQKSSTSPKLWIYDTSKLASGVPGRFSGSGSGHSYSLTISSMEADDVATYYCFQGNGYPLTFGAGTKLELK
On to B1, for which the “half maximal inhibitory concentration (IC50) of ADAMTS13 activity in ovine plasma, FRETS-VWF71 assay” value came out at 2.4 µg/mL.
